# From patent EP4631959A2, “NOVEL MINIGASTRIN-DERIVED CHOLECYSTOKININ 2 RECEPTOR BINDING MOLECULES FOR IMAGING AND TARGETED RADIOTHERAPY” (priority 2022, dated 2024)
# Like-named read-outs stand apart in the source and are kept apart here. Starred links: 1 amine or outer side, 2 acyl side, 3 side chain; linkers in the order of their positions; H or OH if unused. Non-standard residues stand in square brackets, D forms with d. Residues, ends and D or L forms follow the SMILES beside them. *: point of attachment. Benzoyl(4-SiFtBu2) = CC(C)(C)[Si](F)(c1ccc(C(=O)*)cc1)C(C)(C)C; DOTA = O=C(O)CN1CCN(CC(=O)O)CCN(CC(=O)*)CCN(CC(=O)O)CC1; d(γGlu) = O=C(O)[C@@H](CCC(=O)[*:2])N[*:1]; 1Nal = N[C@@H](Cc1cccc2ccccc12)C(=O)O; Hyp = O=C(O)[C@@H]1C[C@@H](O)CN1; NMeNle = CCCC[C@H](NC)C(=O)O; PEG4 = NCCOCCOCCOCCOCCC(=O)O; dDap = NC[C@@H](N)C(=O)O
# Assay: Biodistribution in AR4-2J tumor-bearing CB17-SCID mice
# Type: in vivo
# Conditions: female, CB17-SCID, mouse, in vivo, iv, 100 pmol, total radioactivity, 100 pmol; for tissue uptake at 1 h: 1 h p.i.; for tissue uptake at 2 h: 2 h p.i.; for tissue uptake at 4 h: 4 h p.i.
# Procedure: All animal experiments were conducted in accordance with general animal welfare regulations in Germany (German animal protection act, in the edition of the announcement, dated May 18th, 2006, as amended by Article 280 of June 19th 2020, approval no. ROB-55.2-1-2532.Vet_02-18-109 by the General Administration of Upper Bavaria) and the institutional guidelines for the care and use of animals. CB17-SCID mice of both genders (Charles River Laboratories International Inc., Sulzfeld, Germany) were let to acclimate at the in-house animal facility at least for one week before inoculation was performed. To establish tumor xenografts, AR4-2J cells (5.0 × 10^6 cells per 200 µL) were suspended in a 1/1 mixture (v/v) of Dulbecco modified Eagle medium / Nutrition Mixture F-12 with Glutamax-I (1/1) and Cultrex® Basement Membrane Matrix Type 3 (Trevigen, Gaithersburg, MD, USA) and inoculated subcutaneously onto the right shoulder of 6-10 weeks old CB17-SCID mice (Charles River, Sulzfeld, Germany). Mice were used for experiments when tumors had grown to a volume of 150-300 mm^3 (1-2 weeks after inoculation). Exclusion criteria for animals from an experiment were either a weight loss higher than 20%, a tumor size above 1,500 mm^3, an ulceration of the tumor, a respiratory distress or a change of behavior. None of these criteria applied to any animal from the experiment. Neither randomization nor blinding was applied in the allocation of the experiments. Health status is SPF according to FELASA.
# Approximately 1-5 MBq (100 pmol) of the radiolabeled minigastrin analogues were injected into the tail vein of AR4-2J tumor-bearing female CB17-SCID mice and sacrificed at 1 to 24 h post injection (n = 4-5). Selected organs were removed, weighted and measured in a γ-counter.
# [1] = read-out: activity levels in the blood
# [2] = read-out: activity levels in the tumor
smiles,measurement,setting,value
"CCCC[C@@H](C(=O)N[C@@H](CC(=O)O)C(=O)N[C@@H](Cc1cccc2ccccc12)C(N)=O)N(C)C(=O)[C@H](Cc1c[nH]c2ccccc12)NC(=O)CCOCCOCCOCCOCCNC(=O)CC[C@@H](NC(=O)[C@@H]1C[C@@H](O)CN1C(=O)[C@@H]1C[C@@H](O)CN1C(=O)[C@@H]1C[C@@H](O)CN1C(=O)[C@@H]1C[C@@H](O)CN1C(=O)[C@@H]1C[C@@H](O)CN1C(=O)[C@@H]1C[C@@H](O)CN1C(=O)CC[C@@H](NC(=O)[C@@H](CNC(=O)c1ccc([Si](F)(C(C)(C)C)C(C)(C)C)cc1)NC(=O)CN1CCN(CC(=O)O)CCN(CC(=O)O)CCN(CC(=O)O)CC1)C(=O)O)C(=O)O [DOTA-rhCCK-84, DOTA-dap(SiFA)-γ-glu-(Hyp)6-γ-glu-(PEG)3-Trp-(N-Me)Nle-Asp-1-Nal-NH2] ({DOTA}-[dDap](Benzoyl(4-SiFtBu2))[d(γGlu)][Hyp][Hyp][Hyp][Hyp][Hyp][Hyp][d(γGlu)][PEG4]W[NMeNle]D[1Nal]-NH2)",tissue uptake at 1 h,[1],11.3 ± 1.3 %ID/g
same,tissue uptake at 1 h,read-out: tumor uptake,36.3 ± 3.7 %ID/g
same,tissue uptake at 2 h,[1],3.71 ± 0.46 %ID/g
same,tissue uptake at 2 h,[2],35 ± 2.9 %ID/g
same,tissue uptake at 4 h,[1],1.14 ± 0.18 %ID/g
same,tissue uptake at 4 h,[2],34 ± 3.6 %ID/g
same,tissue uptake at 24 h,"24 h p.i., read-out: activity levels in the kidneys",< 10 %ID/g
